Ends that are not written are not given here. * marks the point of attachment. For = O=C*
Biological target: the molecule itself
Assay: ThT fluorescence + TEM

Protein	binding result
MEFVAKLFKFFKDLLGKFLGNN [deformylated wild-type phenol soluble modulin α3 (df-WT PSMα3)]	binds
For-MEFVAKLFKFFKDLLGKFLGNN [formylated wild-type phenol soluble modulin α3 (f-WT PSMα3)]	binds

Reference: doi:10.1101/2024.02.27.582255 (bioRxiv, 2024)
